# From IntAct's records for PubMed 22677173
# B1: Spermatogenesis-defective protein 39 homolog (Homo sapiens), Q9H9C1 (parent)
# chain: MNRTKGDEEEYWNSSKFKAFTFDDEDDELSQLKESKRAVNSLRDFVDDDDDDDLERVSWSGEPVGSISWSIRETAGNSGSTHEGREQLKSRNSFSSYAQLPKPTSTYSLSSFFRGRTRPGSFQSLSDALSDTPAKSYAPELGRPKGEYRDYSNDWSPSDTVRRLRKGKVCSLERFRSLQDKLQLLEEAVSMHDGNVITAVLIFLKRTLSKEILFRELEVRQVALRHLIHFLKEIGDQKLLLDLFRFLDRTEELALSHYREHLNIQDPDKRKEFLKTCVGLPFSAEDSAHIQDHYTLLERQIIIEANDRHLESAGQTEIFRKHPRKASILNMPLVTTLFYSCFYHYTEAEGTFSSPVNLKKTFKIPDKQYVLTALAARAKLRAWNDVDALFTTKNWLGYTKKRAPIGFHRVVEILHKNNAPVQILQEYVNLVEDVDTKLNLATKFKCHDVVIDTYRDLKDRQQLLAYRSKVDKGSAEEEKIDALLSSSQIRWKN
# partner: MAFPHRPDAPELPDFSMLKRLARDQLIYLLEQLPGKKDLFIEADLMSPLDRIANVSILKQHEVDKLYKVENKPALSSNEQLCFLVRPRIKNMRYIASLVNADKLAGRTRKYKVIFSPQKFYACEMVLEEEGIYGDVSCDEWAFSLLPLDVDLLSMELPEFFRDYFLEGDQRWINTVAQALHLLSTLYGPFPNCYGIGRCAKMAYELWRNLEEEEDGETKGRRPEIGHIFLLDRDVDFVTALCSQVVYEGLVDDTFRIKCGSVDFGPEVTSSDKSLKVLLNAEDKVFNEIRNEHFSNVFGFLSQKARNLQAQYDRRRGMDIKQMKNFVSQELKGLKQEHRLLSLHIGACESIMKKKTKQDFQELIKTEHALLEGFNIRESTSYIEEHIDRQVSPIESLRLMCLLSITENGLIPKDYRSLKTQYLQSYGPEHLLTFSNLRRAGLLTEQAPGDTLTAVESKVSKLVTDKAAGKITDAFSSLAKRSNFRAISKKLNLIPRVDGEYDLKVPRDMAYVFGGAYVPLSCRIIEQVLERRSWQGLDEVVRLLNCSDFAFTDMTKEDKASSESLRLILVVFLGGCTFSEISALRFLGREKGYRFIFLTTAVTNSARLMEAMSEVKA
# Variants of: B1
# Conditions: with vp33b_human VPS33B
row,effect of a mutation on the interaction,Variant
1,increasing interaction,Y11F
